B1: Azoarcus group I ribozyme (parent)
chain: GUGCCUUGCGCCGGGAAACCACGCAAGGGAUGGUGUCAAAUUCGGCGAAACCUAAGCGCCCGCCCGGGCGUAUGGCAACGCCGAGCCAAGCUUCGGCGCCUGCGCCGAUGAAGGUGUAGAGACUAGACGGCACCCACCUAAGGCAAACGCUAUGGUGAAGGCAUAGUCCAGGGAGUGGCGAAAGUCACACAAACCGG

Variants of: B1
Test: reverse-splicing fitness (ratio to wild type); higher = more active; in vitro selection; Mg2+ level not given
Outline: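 An in vitro group I ribozyme library with randomized positions was T7-transcribed and gel-purified. In triplicate, 10 pmol RNA in EPPS pH 7.5 was reacted with 50 pmoles of a 30-nt RNA substrate for 1 h at 37 °C across several added MgCl2 levels (1–48 mM), then stopped with EDTA. Products were reverse transcribed from a substrate-complementary primer, PCR-amplified and sequenced (HiSeq 4000). Fitness is a variant's read proportion after selection over that before, normalised to wild type.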

Variant | reverse-splicing fitness
C82A A120C C150G C169U | 0.0104
C82A A120G C150U C169U U176A | 0.0231
C82A A120G C150U C169U U176G | 0.0068
C82A A120G C150U C169U U176C | 0.0192
C82A A120G C150G C169A U176A | 0.0116
C82A A120G C150G C169A U176C | 0.0109
C82A A120G C150G C169A U176G | 0.00619
C82A A120G A145G C150G C169G U176G | 0.00587
C82A A120G A145G C150G C169G U176A | 0.0097
C82A A120G A145G C150G C169G U176C | 0.0124
C82A A120G A145U C150G C169U | 0.00862
C82A A120G A145U C150G C169G | 0.00902
C82A A120G A145U C150G C169A | 0.00891
C82A A120G A145C C169U U176A | 0.0217
C82A A120G A145C C169U U176C | 0.0129
C82A A120G A145C C169U U176G | 0.00381
C82A A120G C150U U176C | 0.015
C82A A120G C150U U176G | 0.00727
C82A A120G C150U U176A | 0.0125
C82A A120G A145C C169A U176C | 0.00741
C82A A120G A145C C169A U176G | 0.00327

Variant | reverse-splicing fitness
C82A A120G A145C C169A U176A | 0.00955
C82A A120U A145C C150G C169A U176A | 0.00254
C82A A120U A145C C150G C169A U176C | 0.00155
C82A A120U A145C C150G C169A U176G | 0.00213
C82A A120G A145G C150A C169A U176C | 0.023
C82A A120G A145G C150A C169A U176G | 0.00558
C82A A120G A145G C150A C169A U176A | 0.0183
C82A A120G A145U C169U | 0.0145
C82A A120G A145U C169A | 0.0137
C82A A120G A145U C169G | 0.0204
C82A A120G C150A C169A U176C | 0.0216
C82A A120G C150A C169A U176A | 0.0184
C82A A120G C150A C169A U176G | 0.00586
C82A A120G A145U C150G C169G U176C | 0.00552
C82A A120G A145U C150G C169G U176G | 0.00378
C82A A120G A145U C150G C169G U176A | 0.0066
C82A A120C C169U | 0.0186
C82A A120C C169G | 0.00961
C82A A120C C169A | 0.0104
C82A A120G C150U C169G U176A | 0.0162
C82A A120G C150U C169G U176C | 0.0193

Variant | reverse-splicing fitness
C82A A120G C150U C169G U176G | 0.00468
C82A A120U A145C C150A C169G U176A | 0.00253
C82A A120U A145C C150A C169G U176C | 0.00352
C82A A120U A145C C150A C169G U176G | 0.00139
C82A A120G A145U C150G C169U U176G | 0.00511
C82A A120G A145U C150G C169U U176C | 0.0127
C82A A120G A145U C150G C169U U176A | 0.0124
C82A A120G A145U C169G U176A | 0.0118
C82A A120G A145U C169G U176C | 0.0144
C82A A120G A145U C169G U176G | 0.00322
C82A A120G C150G C169G U176A | 0.00669
C82A A120G C150G C169G U176C | 0.00462
C82A A120G C150G C169G U176G | 0.00432
C82A A120G C150A C169G U176A | 0.0195
C82A A120G C150A C169G U176G | 0.00524
C82A A120G C150A C169G U176C | 0.0267
C82A A120G A145U C150G | 0.00781
C82A A120G A145U C150U | 0.0167
C82A A120G A145U C150A | 0.00826
C82A A120C C150G | 0.0157
C82A A120C C150U | 0.0789

Variant | reverse-splicing fitness
C82A A120G A145C C150G U176A | 0.00476
C82A A120G A145C C150G U176G | 0.00304
C82A A120G A145C C150G U176C | 0.00686
C82A A120G A145C C150A C169A | 0.00694
C82A A120G A145C C150A C169G | 0.00852
C82A A120G A145C C150A C169U | 0.00736
C82A A120C U176A | 0.04
C82A A120C U176C | 0.056
C82A A120C U176G | 0.00961
C82A A120G A145U C150U C169U | 0.0133
C82A A120G A145U C150U C169A | 0.013
C82A A120G A145U C150U C169G | 0.0173
C82A A120G A145G C150G U176G | 0.00572
C82A A120G A145G C150G U176C | 0.011
C82A A120G A145G C150G U176A | 0.00745
C82A A120G C169G U176A | 0.0203
C82A A120G C169G U176G | 0.00368
C82A A120G C169G U176C | 0.0274
C82A A120G A145C C150A C169G U176C | 0.0138
C82A A120G A145C C150A C169G U176A | 0.0238
C82A A120G A145C C150A C169G U176G | 0.00464

From the RNAGym collection of RNA variant scans (doi:10.1093/molbev/msab373)
